The values that follow come from US20100291682, “SYSTEM FOR TRANSPOSING HYPERACTIVE RECOMBINANT DERIVATIVES OF MOS-1 TRANSPOSON” (published 2010).

For series [1], the target named is T1, MBP-Mos-1 transposase (MBP-Tnp) (Drosophila mauritiana, UniProt Q7JQ07 SEQ:1-345).
T1 sequence: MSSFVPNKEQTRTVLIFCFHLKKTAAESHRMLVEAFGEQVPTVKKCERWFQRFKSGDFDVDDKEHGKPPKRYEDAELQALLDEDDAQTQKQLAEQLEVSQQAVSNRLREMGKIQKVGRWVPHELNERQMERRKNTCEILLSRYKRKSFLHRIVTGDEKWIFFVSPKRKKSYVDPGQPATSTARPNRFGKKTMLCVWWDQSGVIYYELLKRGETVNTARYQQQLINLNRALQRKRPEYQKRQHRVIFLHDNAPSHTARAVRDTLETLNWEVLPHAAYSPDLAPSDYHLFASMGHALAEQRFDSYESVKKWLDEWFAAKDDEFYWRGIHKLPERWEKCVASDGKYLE
Briefly: competition; competes with labelled ITR3'. Particulars: tags: N-terminal MBP (pMalC2x); chain copies: 2. The procedure: The principle of these tests is illustrated in FIG. 9. […] The greater the shift, the greater the “improvement” of the ITRSelex sequence with respect to ITR3′. In practice, the transposase fixing reaction is carried out in 20 μl containing 10 mM of Tris pH9 buffer, 0.5 mM of DDT, 5 mM MgCl₂, 5% (vol/vol) of glycerol, 1 μg of herring sperm DNA and 100 ng of BSA, in the presence of 15 nM of radiolabelled ITR3′ and non-radiolabelled ITRSelex. The non-radiolabelled ITRSelex concentrations tested were 0 nM, 15 nM, 75 nM, 150 nM, 300 nM, 750 nM, 1500 nM.

Series [2] has as its target T1, MBP-Mos-1 transposase (MBP-Tnp). Briefly: EMSA; 5 mM MgCl2, 4 C. Particulars: tags: N-terminal MBP (pMalC2x); chain copies: 2. As for the experimental part: The sequences inducing a delay in migration after incubation with Tnp (positive ITRs) were subjected to a further gel retardation with a purified DNA fragment. The ITR/protein complexes were formed in a final volume of 20 μl containing: 40 μg of MBP-Tnp protein, 1 nM of ITR probe, 1 μg of salmon sperm DNA, 2 μl of 50% glycerol, 5 mM of MgCl₂ and 0.5 μM of pRev. The ITRs only were used at a final concentration of 1 nM in a mixture containing 2 μl of 50% glycerol and 17 μl of buffer. The interaction reactions were maintained for 15 minutes at 4° C. before being analysed on polyacrylamide gel.
(A gel shift assay detects complexes by their altered migration in electrophoresis.)

B1: ITR40 (dsDNA)
DNA 1: TCAGGTGTACAAGTATGTAATGTCGTTA
DNA 2: TAACGACATTACATACTTGTACACCTGA
With B1, the binding result in series [1] is on record as “binds”.

B2: ITR46 (dsDNA)
DNA 1: TCAGGTGTACAAGTATGAGATGTCGTTT
DNA 2: AAACGACATCTCATACTTGTACACCTGA
For B2, in series [2], the binding result is reported as “binds”.
